This note sets out measurements from paper doi:10.1101/2022.05.04.490663 (bioRxiv, 2022).

The target of test [1] is T1, 10xHis-mRuby2-Spt6 (239-1451) (S. cerevisiae, UniProt P23615 239-1451).
T1 sequence (looked up): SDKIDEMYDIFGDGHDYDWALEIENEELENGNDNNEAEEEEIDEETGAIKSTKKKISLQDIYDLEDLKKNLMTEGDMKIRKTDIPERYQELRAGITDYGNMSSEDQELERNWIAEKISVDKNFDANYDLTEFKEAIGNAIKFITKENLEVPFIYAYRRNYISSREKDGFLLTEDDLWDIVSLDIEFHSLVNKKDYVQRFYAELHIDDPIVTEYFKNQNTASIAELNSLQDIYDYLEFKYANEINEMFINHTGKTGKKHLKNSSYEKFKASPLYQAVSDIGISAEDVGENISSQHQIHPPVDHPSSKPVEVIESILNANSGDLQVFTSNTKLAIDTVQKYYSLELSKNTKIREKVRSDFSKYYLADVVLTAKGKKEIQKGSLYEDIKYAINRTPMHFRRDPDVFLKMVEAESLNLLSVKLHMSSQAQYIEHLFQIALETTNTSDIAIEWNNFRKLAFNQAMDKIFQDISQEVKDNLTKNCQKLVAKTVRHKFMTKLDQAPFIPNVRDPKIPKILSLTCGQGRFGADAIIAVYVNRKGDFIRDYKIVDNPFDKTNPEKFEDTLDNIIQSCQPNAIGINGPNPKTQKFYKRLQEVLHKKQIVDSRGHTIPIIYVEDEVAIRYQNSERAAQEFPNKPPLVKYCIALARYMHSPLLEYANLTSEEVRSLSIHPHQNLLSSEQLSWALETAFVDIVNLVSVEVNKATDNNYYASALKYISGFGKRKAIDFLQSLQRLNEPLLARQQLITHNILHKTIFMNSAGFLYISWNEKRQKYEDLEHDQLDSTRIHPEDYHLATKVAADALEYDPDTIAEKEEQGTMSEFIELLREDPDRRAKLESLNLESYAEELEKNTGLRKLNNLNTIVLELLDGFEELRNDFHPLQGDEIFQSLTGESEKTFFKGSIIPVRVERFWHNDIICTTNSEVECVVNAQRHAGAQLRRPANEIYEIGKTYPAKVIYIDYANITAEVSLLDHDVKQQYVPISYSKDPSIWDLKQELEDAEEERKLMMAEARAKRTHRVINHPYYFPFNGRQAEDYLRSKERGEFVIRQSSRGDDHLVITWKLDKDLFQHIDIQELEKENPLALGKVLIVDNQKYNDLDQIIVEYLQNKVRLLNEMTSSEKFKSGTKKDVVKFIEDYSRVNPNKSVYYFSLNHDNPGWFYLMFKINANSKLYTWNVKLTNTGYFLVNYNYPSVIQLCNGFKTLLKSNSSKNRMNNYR
In words: native gel or EMSA. (In general: Mobility shift assays separate free from complexed probe on a gel.)

Test [2] has as its target T2, Spt6 (239-1451), untagged (S. cerevisiae, UniProt P23615 239-1451).
T2 sequence (looked up): T1 sequence (looked up)
In words: fluorescence polarisation.

Where a chain is given by its changes, count along the chain named. Numbers in names are those of the source.

What is called Kd is the free concentration of one partner at which half of the binding sites on the other are occupied at equilibrium, for simple one-to-one binding. Read a high Kd as a looser complex.

B1: 10xHis-mClover-Cdc73 (full-length Cdc73) (natural protein, S. cerevisiae, UniProt Q06697 1-393, looked up)
chain: MANSLDRLREHLKNGDKLVLKNNEGQSTDDITKATMVETLSSDGSTQDSFPLNEETEIEIDGSLVQLRIIVHCWMNKDSSAADYLADCQNKQLTNVSFLQRTDLINWLSGNTESSQYLKAPGQKGETSDKVDIENKTLAGELSTVKSTTSASLENDSEVSDPVVVETMKHERILVDHNSALRGAKPINFGYLIKDAELKLVQSIKGSLRGSKLPPGHKGAHGRISKTNGSSGGPRKDPIILIPSAASSILTVANIKQFLLESKYVNPRNLPSVPNGLVNIEKNFERISRPIRFIIVDNTRMFTKPEYWDRVVAIFTTGHTWQFNNYQWNSPQELFQRCKGYYFHFAGDSVPQHVQQWNVEKVELDKNKRFKDVEVVRYFWHSLEKELISRGYR
As to B1, the Kd in test [1] was about 320 nM; in test [2], 770 nM.

B2: 10xHis-mClover-Cdc73 with the W321A substitution (natural protein, S. cerevisiae, UniProt Q06697 1-393, looked up)
chain: B1 chain with W321A
B2: in test [1], the binding result is given as “binds”.
